Patent publication US20050153395A1 (CHILDREN S HOSPITAL, published 2005)
Numbering of substitutions follows the chain as printed. Numbers in names are those of the source.

B1: CTGF4 mutant M1 (I257A, R258A, T259A, P260A) (ligand)
chain: EENIKKGKKCAAAAKISKPIKFELSGCTSMKTYRAKFCGVCTDGRCCTPHRTTTLPVEFKCPDGEVMKKNMMFIKTCACHYNCPGDNDIFESLYYRKMYGDMA
B2: CTGF4 mutant M4 (E269A, L270A, S271A, G272A) (ligand)
chain: B1 chain with A11I, A12R, A13T, A14P, E23A, L24A, S25A, G26A
B3: CTGF4 mutant M3 (P265A, I266A, K267A, F268A) (ligand)
chain: B1 chain with A11I, A12R, A13T, A14P, P19A, I20A, K21A, F22A

biological target: integrin αvβ3 on activated rat hepatic stellate cells (HSC) (rat, UniProt Q8R2H2 26-787); experiment: cell-based or functional assay
Sequence (Q8R2H2 26-787): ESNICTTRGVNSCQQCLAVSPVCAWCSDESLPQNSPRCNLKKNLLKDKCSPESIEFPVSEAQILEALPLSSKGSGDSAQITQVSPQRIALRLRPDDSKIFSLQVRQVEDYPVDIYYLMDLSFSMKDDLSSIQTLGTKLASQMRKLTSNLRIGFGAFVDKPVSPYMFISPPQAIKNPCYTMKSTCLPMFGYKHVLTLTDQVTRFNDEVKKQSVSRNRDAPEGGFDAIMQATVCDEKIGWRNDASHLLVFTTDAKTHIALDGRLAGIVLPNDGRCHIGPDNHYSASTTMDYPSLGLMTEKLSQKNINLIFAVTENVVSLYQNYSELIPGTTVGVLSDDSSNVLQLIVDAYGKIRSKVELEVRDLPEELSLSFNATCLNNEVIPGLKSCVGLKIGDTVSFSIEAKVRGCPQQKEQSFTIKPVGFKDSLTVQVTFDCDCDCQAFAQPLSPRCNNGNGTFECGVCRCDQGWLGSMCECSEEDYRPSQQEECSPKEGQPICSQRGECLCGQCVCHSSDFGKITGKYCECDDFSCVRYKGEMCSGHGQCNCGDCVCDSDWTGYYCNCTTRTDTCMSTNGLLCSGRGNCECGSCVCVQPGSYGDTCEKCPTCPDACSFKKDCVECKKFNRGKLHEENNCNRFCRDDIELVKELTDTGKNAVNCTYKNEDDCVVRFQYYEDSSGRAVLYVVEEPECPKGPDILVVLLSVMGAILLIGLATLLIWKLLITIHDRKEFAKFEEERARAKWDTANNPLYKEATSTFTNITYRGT

| Binder | HSC adhesion, level relative to wild-type CTGF4 [%] |
| --- | --- |
| B1 | 33 |
| B2 | 46 |
| B3 | 80 |
